B1: wild-type HU with a C-terminal His-tag (Acinetobacter baumannii SK17 histone-like DNA-binding protein HU) (natural protein, UniProt A0ABX6CHP0 1-90, looked up)
chain: MNKSELIDAIAEKGGVSKTDAGKALDATIASITEALKKGDTVTLVGFGTFSVKERAARTGRNPKTGEELQIKATKVPSFKAGKGLKDSVA
notes: cloned whole between NdeI and XhoI of pET-21a(+); also called wt HU; wt; source: E. coli BL21(DE3), purified (Ni-NTA, cation-exchange chromatography); not shown: His6, C-terminal, kept
B2: HU(K13ac), HU acetylated at Lys13, with a C-terminal His-tag (natural protein, Acinetobacter baumannii SK17, UniProt A0ABX6CHP0 1-90, looked up)
chain: B1 chain
modifications: acetyllysine at residue 13
notes: the codon of Lys13 replaced by an amber codon for site-specific incorporation of acetyllysine; also called Lys13-acetylated HU; not shown: His6, C-terminal, kept
B3: biotin-labeled dsDNA (BLI) (dsDNA)
DNA 1: ATTAATATTTTCTTAAACTAATTTAAAAT
DNA 2: ATTTTAAATTAGTTTAAGAAAATATTAAT

Legend:
[1] = target: the molecule itself; assay: SEC; analytical size-exclusion chromatography, Superdex 75 10/300 GL, PBS, 0.5 ml/min; size judged against ovalbumin (44 kDa) and myoglobin (17 kDa) markers
[2] = target: HU (wt*, without His-tag) (Acinetobacter baumannii SK17, UniProt A0ABX6CHP0); assay: BLI; BLI: 30 mM Tris pH 7.5, 100 mM NaCl, 0.02% Tween20, 0.5 mg/ml BSA, 25°C; EMSA: same buffer, 37°C 1 h, 250 ng DNA in 10 µl, 1% agarose in TAE; AFM: 10 mM HEPES pH 7.5, 4 mM MgCl2; conditions: protein: recombinant; tags: none; N-terminal GA remains after TEV cleavage; chain copies: 2; label: 5'-biotin on strand 1; (only one strand printed)
[3] = target: HU (wt, C-terminal His-tag) (Acinetobacter baumannii SK17, UniProt A0ABX6CHP0); assay: as above; conditions: protein: recombinant; chain copies: 2; label: 5'-biotin on strand 1; (only one strand printed)
[4] = target: HU(K13ac) (C-terminal His-tag) (Acinetobacter baumannii SK17, UniProt A0ABX6CHP0, K13ac); assay: BLI; kon and koff several-fold lower than wt; BLI: 30 mM Tris pH 7.5, 100 mM NaCl, 0.02% Tween20, 0.5 mg/ml BSA, 25°C; EMSA: same buffer, 37°C 1 h, 250 ng DNA in 10 µl, 1% agarose in TAE; AFM: 10 mM HEPES pH 7.5, 4 mM MgCl2; conditions: protein: recombinant; chain copies: 2; label: 5'-biotin on strand 1; (only one strand printed)

Binder | stoichiometry N [1] | Kd [2] [nM] | Kd [3] [nM] | Kd [4] [nM]
B1 | 2 | – | – | –
B2 | 2 | – | – | –
B3 | – | 276 ± 143 | 349 ± 352 | 184 ± 9.3

— PMC5711770, “Acetylome of Acinetobacter baumannii SK17 Reveals a Highly-Conserved Modification of Histone-Like Protein HU” (Frontiers in Molecular Biosciences, 2017)
